Paper PMC4626678 (2015)
Positions count from the first letter of the chain named.

B1: HCRG2 (protein)
chain: RGICLEPKVVGPCKARIRRFYYDSETGKCTPFIYGGCGGNGNNFETLHACRGICRA
B2: HCRG1 (protein)
chain: B1 chain with L5S, R16G, I17L, K28E, T30K, G38K, G41K

Tests used:
alpha-chymotrypsin = alpha-chymotrypsin (Bos taurus, UniProt P00766); experiment: SPR
trypsin [1] = molecular target: T1, trypsin (Bos taurus, UniProt P00760); experiment: SPR
T1 chain: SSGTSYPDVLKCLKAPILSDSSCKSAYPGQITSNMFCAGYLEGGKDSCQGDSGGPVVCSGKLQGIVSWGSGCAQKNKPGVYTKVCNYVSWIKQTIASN

trypsin [2] = molecular target: T1, trypsin; experiment: enzyme inhibition (Dixon, BAPNA)

Binder	Kd (alpha-chymotrypsin) [nM]	Kd (trypsin [1]) [nM]	Ki (trypsin [2]) [nM]
B1	1.6	0.68	50
B2	1.8	0.22	28
